Measurements as given in PMC5805371.

Target: MYC-tagged TNPO1 (UniProt Q92973)
Test: co-immunoprecipitation with luciferase readout (anti-MYC IP)
Conditions: HEK293 cells expressing MYC-TNPO1 and PER1PY/Cys_mut-LUCIFERASE; control IgG IP (filled bar) est. 0.75 ± 0.19; n.s.; means ± SD of five; read off a plot

Sequence of UniProt Q92973 (Q92973 whole entry): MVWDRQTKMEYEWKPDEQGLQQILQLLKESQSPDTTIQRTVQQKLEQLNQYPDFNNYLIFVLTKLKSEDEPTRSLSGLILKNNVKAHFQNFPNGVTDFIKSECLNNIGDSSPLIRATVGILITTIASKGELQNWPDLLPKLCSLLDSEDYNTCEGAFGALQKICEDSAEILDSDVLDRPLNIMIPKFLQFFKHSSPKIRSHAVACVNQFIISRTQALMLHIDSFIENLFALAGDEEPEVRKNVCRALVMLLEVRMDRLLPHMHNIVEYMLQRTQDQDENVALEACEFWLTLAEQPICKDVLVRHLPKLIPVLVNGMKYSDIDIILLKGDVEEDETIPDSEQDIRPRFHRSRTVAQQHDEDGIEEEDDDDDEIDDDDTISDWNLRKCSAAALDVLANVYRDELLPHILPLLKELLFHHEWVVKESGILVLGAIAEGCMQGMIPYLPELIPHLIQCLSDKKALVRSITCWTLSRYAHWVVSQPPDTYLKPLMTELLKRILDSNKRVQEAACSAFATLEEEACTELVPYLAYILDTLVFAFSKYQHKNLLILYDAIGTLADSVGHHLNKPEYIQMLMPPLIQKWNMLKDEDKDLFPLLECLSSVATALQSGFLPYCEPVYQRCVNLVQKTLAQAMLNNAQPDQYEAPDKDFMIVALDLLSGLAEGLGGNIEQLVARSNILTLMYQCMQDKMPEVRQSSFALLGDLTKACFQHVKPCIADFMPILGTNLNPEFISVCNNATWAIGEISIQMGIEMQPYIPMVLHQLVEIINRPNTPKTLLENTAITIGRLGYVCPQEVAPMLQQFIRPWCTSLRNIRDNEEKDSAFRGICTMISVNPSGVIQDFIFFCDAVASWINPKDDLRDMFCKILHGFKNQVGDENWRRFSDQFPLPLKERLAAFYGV

PER1 fused to full-length firefly luciferase (HEK293) (from UniProt O15534) P883A; Y884A; P935A; Y936A; seven C-terminal Cys to Ala (positions not printed)
response: 0.75
